Measured values published in patent US20210253725A1 (BIONTECH, published 2021).
Positions count from the first letter of the chain named. Names and notes keep the numbering of the source. Blank lines part the entries; values can stand above or below the binder they belong to.

Tests used:
[1] = molecular target: T1, CD134 expressed on the cell surface of HT1080_OX40 cells (human, UniProt P43489 29-277); experiment: HT1080_OX40 cells, imaging
T1 construct: whole, on cells; species not restated for the HT1080 transfectant
T1 sequence (looked up): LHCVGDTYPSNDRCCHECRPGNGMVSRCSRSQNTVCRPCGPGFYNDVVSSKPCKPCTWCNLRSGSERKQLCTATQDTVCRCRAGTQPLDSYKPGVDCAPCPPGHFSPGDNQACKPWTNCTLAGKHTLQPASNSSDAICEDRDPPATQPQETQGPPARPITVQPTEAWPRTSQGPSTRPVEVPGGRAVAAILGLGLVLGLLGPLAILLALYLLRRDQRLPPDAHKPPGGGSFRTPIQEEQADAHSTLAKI

[2] = molecular target: T1, CD134 expressed on the cell surface of …; experiment: cell-based or functional assay
[3] = molecular target: T2, CD134 protein (His-tagged, Sino Biological Inc. 10481-H08H) (human, UniProt P43489 29-216); experiment: ELISA, coated His-tagged CD134
T2 construct: bought protein coated on ELISA plates; also called OX40; TNFRSF4; not shown: His tag
T2 sequence (looked up): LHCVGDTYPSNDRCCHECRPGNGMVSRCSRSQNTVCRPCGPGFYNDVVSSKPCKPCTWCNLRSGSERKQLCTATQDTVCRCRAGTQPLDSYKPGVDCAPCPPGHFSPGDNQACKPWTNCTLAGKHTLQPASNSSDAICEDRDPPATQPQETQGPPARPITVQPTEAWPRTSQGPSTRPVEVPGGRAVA
Note: test concentration or dose not given here.

B2: P018.S.11.A.A03 (antibody, V domains shown)
VH: QSLEESGGDLVKPGASLTLPCTASGFTLSGYWMCWVRQAPGKGLEWIGCIYNGDGSTYYASWAKGRFTISKTSSTTVTLQMTSLTAADTATYFCARDSNGWGAYGLWGPGTLVTVSS
VL: AIEMTQTPSSVSAAVGGTVTIDCQASQSIGSYLSWYQQKPGQPPKLLIYDASDLASGVPSRFSGSGSGTEFTLTISGVQSDDAATYYCQGGYYSSATEIAFGGGTEVVVK
notes: V regions on human Ig constant parts; also called AB134_20
Cellular binding assay [RFU] [1]: 459 RFU
Functional assay Cross-linked by F(ab′)2 fragment IL-8 [2]: 2.01 abs. corr.
Functional assay IL-8 [2]: 1.38 abs. corr.
ELISA [abs. corr.] [3]: 1.93 abs. corr.

B6: P018.S.11.A.H05 (antibody, V domains shown)
VH: QQRLVESGGGLVKPGASLTLTCTASGFSFSSGYDMCWVRQAPGKGLEWVGCIDTATDTIYYASWAPGRFTISKTSSTMVTLQMTSLTAADTATYFCARSVGGVDYAIDLWGPGTLVTVSS
VL: AYDMTQTPVSVEVPVGGTVTIKCQASQNIGSRLVWYQQKPGQSPKFLIYYASNLASGVSSRFKGSGSGTQFTLTISDVQSDNAATYYCQQTYSYSDVDDTFGGGTEVVVK
notes: V regions on human Ig constant parts; also called AB134_48
Cellular binding assay [RFU] [1]: 478 RFU
Functional assay Cross-linked by F(ab′)2 fragment IL-8 [2]: 2.01 abs. corr.
Functional assay IL-8 [2]: 1.21 abs. corr.
ELISA [abs. corr.] [3]: 1.69 abs. corr.

B8: P018.S.11.A.D06 (antibody, V domains shown)
VH: QSLEESGGRLVKPGESLTLTCTVSEFSLSSNAMGWVRQAPGKGLEFIGLIDSGGDAYYATWAKGRFTISKTSSTTVDLKATSLTTEDTATYFCGRGYWFPRLGLWGQGTLVTVSS
VL: AAVLTQTPSPVSAAVGGTVSINCQSTKNVYLNNWLGWFQKKPGQPPKLLIYDASTLASGVPSRFKGSGSGTEFTLTISDLESDDAATYYCAGAYDDNSDHTFGGGTEVVVK
notes: V regions on human Ig constant parts; also called AB134_32
Cellular binding assay [RFU] [1]: 130 RFU
Functional assay Cross-linked by F(ab′)2 fragment IL-8 [2]: 1.97 abs. corr.
Functional assay IL-8 [2]: 0.019 abs. corr.
ELISA [abs. corr.] [3]: 0.744 abs. corr.

The next lines start with the values.

Cellular binding assay [RFU] [1]: 525 RFU
Functional assay Cross-linked by F(ab′)2 fragment IL-8 [2]: 2.04 abs. corr.
Functional assay IL-8 [2]: 0.214 abs. corr.
ELISA [abs. corr.] [3]: 2.65 abs. corr.
B1: P018.S.11.A.E02 (antibody, V domains shown)
VH: QEQLEESGGDLVKPEGSLTLTCTASGFSFNVDYYMCWVRQAPGKGLEWIACIYVGSEGSTYYASWAKGRFTISKTSSTTVTLQMTSLTAADTATYFCARHYAGYAGYNYATDYYFTLWGPGTLVTVSS
VL: DIVMTQTPSSVSAGVGGTVTINCQASQSVTNFLSWYQQKPGQPPKLLIYGASTLASGVPSRFKGSGSGTEFTLTISGMKAEDVATYYCQSGYYSATFGAGTKVEIK
notes: V regions on human Ig constant parts; also called AB134_33

Cellular binding assay [RFU] [1]: 463 RFU
Functional assay Cross-linked by F(ab′)2 fragment IL-8 [2]: 2.04 abs. corr.
Functional assay IL-8 [2]: 0.439 abs. corr.
ELISA [abs. corr.] [3]: 2.55 abs. corr.
B3: P018.S.12.A.E01 (antibody, V domains shown)
VH: QSVEESGGRLVTPGGSLTLTCTVSGIDLSSADMSWVRQAPGEGLEYIGWINNVGSAYYASWAKGRFSISKTSSTTVDLKVTSLTTEDTATYFCVRGYWLDLWGQGTLVTVSS
VL: AAVLTQTPSPVSAAVGGTVSISCQSSVNVYNNNYLAWFQQKPGQPPKLLIYAASTLPSGVSSRFSGNGSGTEFTLTISGVQSDDAATYYCVGYYSSTDDNGFGGGTEVVVK
notes: V regions on human Ig constant parts; also called AB134_72

Cellular binding assay [RFU] [1]: 482 RFU
Functional assay Cross-linked by F(ab′)2 fragment IL-8 [2]: 2 abs. corr.
Functional assay IL-8 [2]: 0.461 abs. corr.
ELISA [abs. corr.] [3]: 2.04 abs. corr.
B4: P018.S.12.A.E03 (antibody, V domains shown)
VH: QSVEESGGRLVTPGTPLTLTCTVAGIDLNICGMSWVRQAPGKGLEWIGIIYPSDYTYYATWAKGRFTISKTSTTVDLKITSPTTEDTATYFCARGLGHAWSHFDLWGQGTLVTVSS
VL: AFELTQTPASVSEPVGGTVTIKCQASQSIGSDLAWYQQKPGQPPKLLIYSVSNLPSGVSSRFKGSRSGTEYTLTISDLESADAATYYCQSYYGTITTGYIAFGGGTEVVVK
notes: V regions on human Ig constant parts; also called AB134_74

Cellular binding assay [RFU] [1]: 560 RFU
Functional assay Cross-linked by F(ab′)2 fragment IL-8 [2]: 1.97 abs. corr.
Functional assay IL-8 [2]: -0.167 abs. corr.
ELISA [abs. corr.] [3]: 2.21 abs. corr.
B5: P018.S.12.A.B02 (antibody, V domains shown)
VH: QSLEESGGRLVTPGTPLTLTCTVSGIDLSKYTMTWVRQAPGKGLEWIGLISFGGRGGTWYANWAKGRFTISKTSTTVDLRIASPTTEDTATYFCARARYSGTNYDYFNLWGQGTLVTVSS
VL: AYDMTQTPASVEVAVGGTVTIKCQASQSISNWLAWYQQKPGQRPKLLIYGASNLESGVPSRFKGSGSGTDFTLTISDLESADAATYYCQQGYSSDGVTNAFGGGTEVVVE
notes: V regions on human Ig constant parts; also called AB134_57

Cellular binding assay [RFU] [1]: 559 RFU
Functional assay Cross-linked by F(ab′)2 fragment IL-8 [2]: 1.83 abs. corr.
Functional assay IL-8 [2]: 0.707 abs. corr.
ELISA [abs. corr.] [3]: 1.34 abs. corr.
B7: P018.S.12.A.D03 (antibody, V domains shown)
VH: B6 VH with Q2E, A55G, D57G, K73E, V103Y
VL: B6 VL with V9A
notes: V regions on human Ig constant parts; also called AB134_68
